Entries after “also recorded” stand apart in the source; their conditions may differ.
Columns and labels:
[1] = test system: AtPRK3^LRR; assay: ITC, AtLURE1.2 titrated into AtPRK3^LRR; type: binding, Arabidopsis; details: 25 °C, 200 mM HEPES pH 7.0, 100 mM NaCl, ~0.9 mM AtLURE1.2 into 0.08 mM AtPRK3^LRR
From the text: (§1) The genes of AtPRK3 ^LRR (residues 1–241), AtPRK4 ^LRR (residues 1–277), AtPRK5 ^LRR (residues 1–279), AtPRK6 ^LRR (residues 1–262), MIK1 ^LRR (residues 1–633), MIK2 ^LRR (residues 1–707) were amplified from Arabidopsis cDNA library by PCR and cloned into pFastBac-1 vector with a C-terminal 6 × His-tag. Their identities were confirmed by sequencing. The mature form of AtLURE1.1 (residues 20–94), AtLURE1.2 (residues 20–90), AtLURE1.3 (residues 21–91), and AtLURE1.4 (residues 20–90) were cloned into pFastBac-1 vector, with a modified N-terminal hemolin signal peptide and 6 × His-SUMO tag. Point mutation constructs were generated by QuickChange Site-Directed Mutagenesis Kit (Strategene). All the proteins were expressed using the Bac-to-Bac baculovirus expression system (Invitrogen) in High Five cells at 22 °C. One liter of High Five cells (2.0 × 10^6 cells mL^−1) cultured in the medium from Expression Systems was infected with 25 ml recombinant baculovirus and the media was collected after 72 h of infection. Secreted LRR proteins were purified using Ni-NTA (Novagen) and size-exclusion chromatography (Hiload 200, GE Healthcare) in buffer containing 10 mM Bis-Tris pH 6.0 and 100 mM NaCl. The His-SUMO tag of the AtLURE proteins was removed by Prescission Protease at 4 °C overnight in buffer containing 25 mM Tris pH 8.0 and 150 mM NaCl. […]

[2] = test system: AtPRK6^LRR D234A; assay: In vitro pull-down with AtPRK6^LRR mutant D234A; type: binding, Arabidopsis thaliana; details: wild-type AtLURE1.2
From the text: as §1, with “NaCl.” for “NaCl. The His-SUMO tag of the AtLURE proteins was removed by Prescission Protease at 4 °C overnight in buffer containing 25 mM Tris pH 8.0 and 150 mM NaCl.”
(§2) The purified His-tagged ectodomains of AtPRK proteins and MIK1, 2 were used to pull-down the AtLURE1.2 peptide. […] All the eluted samples were analyzed by SDS-PAGE and visualized by Coomassie blue staining. […]

[3] = test system: AtPRK6^LRR ΔN239I240; assay: In vitro pull-down with AtPRK6^LRR mutant with Asn239 and Ile240 deleted; type: binding, Arabidopsis thaliana; details: wild-type AtLURE1.2
From the text: as §1, with “NaCl.” for “NaCl. The His-SUMO tag of the AtLURE proteins was removed by Prescission Protease at 4 °C overnight in buffer containing 25 mM Tris pH 8.0 and 150 mM NaCl.”
as §2

[4] = test system: PRK6 N239A; assay: In vitro pull-down with AtPRK6^LRR mutant N239A; type: binding, Arabidopsis thaliana
From the text: as §1, with “NaCl.” for “NaCl. The His-SUMO tag of the AtLURE proteins was removed by Prescission Protease at 4 °C overnight in buffer containing 25 mM Tris pH 8.0 and 150 mM NaCl.”
as §2

[5] = test system: semi-in-vivo pollen tubes; assay: Gelatin-beads assay, wild-type semi-in-vivo pollen tubes; type: cell-based, Arabidopsis; details: gelatin beads containing 250 nM peptide
Procedure: Attraction activities of mutant AtLURE1.2 peptides were examined for semi-in-vivo pollen tubes growing through cut, pollinated pistils by gelatin-beads assay and wavy assay, [20]. For the gelatin-beads assay, pollen tubes were grown on solid pollen germination medium poured into a mold made with 1-mm thick silicone rubber and cover glasses. After hand-pollination, the topside cover glass was removed and the medium was covered with hydrated silicone oil (KF-96–100CS; Shin-Etsu). Attraction of pollen tubes toward the peptide was evaluated using AtLURE1 peptide containing gelatine beads under an inverted microscope (IX71, Olympus) equipped with a micro-manipulator (Narishige). For the AtLURE1-responsive wavy assay, the purified AtLURE1.2 peptide was added to solid pollen germination medium, which was melted at 70 °C and then cooled to a certain degree. The mixture was mixed by vortexing and poured into the mold. Pollen tubes of each genotype were grown through cut styles, as mentioned above. Each peptide (25 μM in 10 mM Bis-Tris (pH 6.0) and 100 mM NaCl) was diluted to 250 nM by cultivation medium in both assays. To examine reactivity of PRK6 mutants to AtLURE1.2, constructs for PRK6 mutants, D234A, N239A, and ΔN239I240, were generated by site-directed mutagenesis from a wild-type PRK6 vector, pPZP221-pPRK6::PRK6-mRuby2 (ref. [20]). Wild-type and mutant PRK6 constructs were introduced into prk6–1 plant. After transformants were selected by the same criteria as previously, beads assay and wavy assay were performed in several T1 lines and single T2 line, respectively, for each genotype using 250 nM wild-type AtLURE1.2 peptide.

[6] = test system: prk3 deletion pollen tubes; details: cited from earlier work
From the text: (§3) The DEFL peptide SCR9 that is involved in self-recognition in self-incompatibility induces homodimerization of its receptor SRK9 (ref. [34]).

[7] = test system: prk6 knockout pollen tubes; details: cited from earlier work
From the text: as §3

B1: AtLURE1.2: mature form of AtLURE1.2 (residues 20–90), defensin-like cysteine-rich peptide expressed in insect cells (protein)
chain: TLINGSSDEERTYSFSPTTSPFDPRSLNQELKIGRIGYCFDCARACMRRGKYIRTCSFERKLCRCSISDIK
modifications: left off: His6, N-terminal, cleaved | SUMO, N-terminal, cleaved
notes: mature form of AtLURE1.2 (residues 20–90), defensin-like cysteine-rich peptide expressed in insect cells
[1]
  binding in ITC: none of the purified AtPRK3^LRR, MIK1^LRR or MIK2^LRR proteins showed detectable interaction
[2]
  interaction in pull-down assay: greatly compromised; also recorded: significantly compromised
[3]
  interaction in pull-down assay: A similar effect was observed; also recorded: significantly compromised
[4]
  AtLURE1.2 binding activity of receptor mutant: still retained the AtLURE1.2 binding activity
[5]; Tukey−Kramer test, P < 0.05
  pollen tube attraction activity (in words): efficiently attracted pollen tubes
[5]; mean ± SD, 9–16 pollen tubes per assay, 3−5 assays
  attraction frequency of pollen tubes: 94 ± 7%
[6]
  responsiveness of pollen tubes to AtLURE1.2: little effect
[7]
  pollen tube reorientation toward AtLURE1.2: completely abolished

Source: paper PMC5673899, “Structural basis for receptor recognition of pollen tube attraction peptides” (Nature Communications, 2017)
